Reference: US6444793

Molecular target: patched (receptor for Shh), on patched-transfected EBNA-293 cells
Assay: FACS competition with Shh-Ig on patched-transfected EBNA-293 cells

Sequence of patched (receptor for Shh), on patched-transfected EBNA-293 cells (A3KBI9 whole entry): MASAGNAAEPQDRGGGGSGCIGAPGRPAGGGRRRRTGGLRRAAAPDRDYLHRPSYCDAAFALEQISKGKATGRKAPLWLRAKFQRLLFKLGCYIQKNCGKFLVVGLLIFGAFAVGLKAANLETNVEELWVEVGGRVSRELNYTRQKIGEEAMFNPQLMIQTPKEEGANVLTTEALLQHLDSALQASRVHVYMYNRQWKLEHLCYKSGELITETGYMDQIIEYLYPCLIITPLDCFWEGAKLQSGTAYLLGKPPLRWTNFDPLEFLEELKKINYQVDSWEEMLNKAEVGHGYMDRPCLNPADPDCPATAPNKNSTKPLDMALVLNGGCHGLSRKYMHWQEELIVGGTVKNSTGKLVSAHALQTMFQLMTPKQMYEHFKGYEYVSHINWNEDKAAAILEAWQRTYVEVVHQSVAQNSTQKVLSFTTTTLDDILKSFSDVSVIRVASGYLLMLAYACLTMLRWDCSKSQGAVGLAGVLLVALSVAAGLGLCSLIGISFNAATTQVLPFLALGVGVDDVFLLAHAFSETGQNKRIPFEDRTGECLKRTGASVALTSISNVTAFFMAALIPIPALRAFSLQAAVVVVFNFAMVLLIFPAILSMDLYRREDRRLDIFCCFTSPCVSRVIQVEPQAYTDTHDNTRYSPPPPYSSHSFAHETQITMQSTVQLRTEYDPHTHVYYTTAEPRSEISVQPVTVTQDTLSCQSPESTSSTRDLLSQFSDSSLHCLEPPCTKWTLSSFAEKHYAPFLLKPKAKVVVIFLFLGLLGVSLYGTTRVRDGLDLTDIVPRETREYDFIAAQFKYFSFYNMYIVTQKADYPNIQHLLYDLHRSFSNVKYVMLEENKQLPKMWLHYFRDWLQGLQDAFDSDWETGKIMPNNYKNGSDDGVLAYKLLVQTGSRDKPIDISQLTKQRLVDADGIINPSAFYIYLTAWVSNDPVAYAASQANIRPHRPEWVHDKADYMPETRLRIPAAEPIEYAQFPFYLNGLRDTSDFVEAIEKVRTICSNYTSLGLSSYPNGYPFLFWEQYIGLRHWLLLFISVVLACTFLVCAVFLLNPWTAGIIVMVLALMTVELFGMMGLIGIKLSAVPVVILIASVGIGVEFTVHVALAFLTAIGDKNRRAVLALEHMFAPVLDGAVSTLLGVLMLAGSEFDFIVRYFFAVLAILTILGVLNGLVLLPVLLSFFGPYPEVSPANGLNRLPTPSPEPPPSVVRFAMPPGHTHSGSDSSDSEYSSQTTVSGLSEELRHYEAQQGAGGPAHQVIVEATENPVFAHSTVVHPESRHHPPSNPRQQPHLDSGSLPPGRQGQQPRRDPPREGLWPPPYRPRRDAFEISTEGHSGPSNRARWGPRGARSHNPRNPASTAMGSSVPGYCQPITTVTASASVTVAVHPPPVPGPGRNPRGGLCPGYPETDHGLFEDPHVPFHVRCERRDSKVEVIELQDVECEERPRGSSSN

IC50	Substance
0.15 µg/mL	soluble human Sonic hedgehog N-terminal fragment (unmodified, Cys-1 to Gly-174, produced in E. coli) (from UniProt Q14623 28-201) (ligand)
0.4 µg/mL	tethered human Sonic hedgehog (N-terminal fragment with a palmitoyl group at the N-terminus and cholesterol at the C-terminus, purified from High Five insect cells) (from UniProt Q14623 28-201) (ligand)
